Laboratory results: article PMC12775996

Key:
[1] = molecular target: adenovirus type 5 vector particles (wild-type capsid) (human adenovirus type 5); assay: SPR; MP-SPR 220A, CMD 2D sensor, viruses amine-coupled, 22°C; PF4 at 7 μg/mL (900 nM) in pure PBS without passivating agents, 600 s injection, then flush
[2] = molecular target: human platelet factor 4 (human)
human platelet factor 4 = assay: ELISA-qPCR; conditions: PF4-coated wells; N = 6, two independent repeats; bar labelled Ad5-ΔfX; parent: est. 1.7e5; read off a plot

Substance | VP uptake in A549 cells (internalized Ad genomes by qPCR, 3 hpi, 20 vpc) after incubation with 10 μg/mL PF4 [2] [fold] | also measured
human platelet factor 4 (natural protein) | – | Kd [1]: 1050 nM
adenovirus type 5 vector particles (wild-type capsid), P06496 1-107 | 3 | –
adenovirus type 13 vector particles (complex) | 1.6 | –
adenovirus type 5 vector particles (wild-type capsid) (from UniProt P06496) T425A | – | response (number of bound VPs) (human platelet factor 4): 290000
adenovirus type 11 vector particles (complex) | 1.6 | –
adenovirus type 69 vector particles (complex) | 3 | –
